Molecular target: T1, dopamine D2 receptor (mouse (endogenous in C57BL/6 brain slices)), P61168
T1 chain: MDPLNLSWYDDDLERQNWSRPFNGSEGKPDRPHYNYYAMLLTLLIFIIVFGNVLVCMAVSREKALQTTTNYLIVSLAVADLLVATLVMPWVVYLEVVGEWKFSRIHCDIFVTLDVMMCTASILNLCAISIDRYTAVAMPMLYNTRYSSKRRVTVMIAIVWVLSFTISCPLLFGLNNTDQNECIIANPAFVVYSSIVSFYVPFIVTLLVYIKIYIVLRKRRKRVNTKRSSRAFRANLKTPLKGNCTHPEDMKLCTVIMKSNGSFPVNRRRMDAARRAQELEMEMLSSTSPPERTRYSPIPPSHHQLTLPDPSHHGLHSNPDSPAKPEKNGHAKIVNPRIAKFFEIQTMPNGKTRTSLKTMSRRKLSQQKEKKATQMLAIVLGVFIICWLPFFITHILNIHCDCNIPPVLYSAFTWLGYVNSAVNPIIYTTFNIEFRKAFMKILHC
Test: proximity ligation
Conditions: remark: other sources report otherwise

PLA dots per µm^2: 0.283 dots/µm^2
B1: dopamine D1 receptor, Q61616 1-446 (receptor)
chain: MAPNTSTMDETGLPVERDFSFRILTACFLSLLILSTLLGNTLVCAAVIRFRHLRSKVTNFFVISLAVSDLLVAVLVMPWKAVAEIAGFWPFGSFCNIWVAFDIMCSTASILNLCVISVDRYWAISSPFQYERKMTPKAAFILISVAWTLSVLISFIPVQLSWHKAKPTWPLDGNFTSLEDAEDDNCDTRLSRTYAISSSLISFYIPVAIMIVTYTSIYRIAQKQIRRISALERAAVHAKNCQTTTGNGNPVECSQSESSFKMSFKRETKVLKTLSVIMGVFVCCWLPFFISNCMVPFCGSEETQPFCIDSITFDVFVWFGWANSSLNPIIYAFNADFQKAFSTLLGCYRLCPTTNNAIETVSINNNGAVMFSSHHEPRGSISKDCNLVYLIPHAVGSSEDLKREEAGGIPKPLEKLSPALSVILDYDTDVSLEKIQPVTHSGQHST

Source: article PMC4390438
